Literature values in publication PMC10320286.
pKd: −log10 of the molar value.

Target: IL-18BP (Homo sapiens) (UniProt O95998)
Sequence (O95998 31-194): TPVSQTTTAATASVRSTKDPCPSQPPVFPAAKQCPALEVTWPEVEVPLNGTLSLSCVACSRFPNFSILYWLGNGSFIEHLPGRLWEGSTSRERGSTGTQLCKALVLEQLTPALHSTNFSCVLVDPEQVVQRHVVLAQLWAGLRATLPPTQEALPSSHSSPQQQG

IL-18, sequence (Q14116 37-193): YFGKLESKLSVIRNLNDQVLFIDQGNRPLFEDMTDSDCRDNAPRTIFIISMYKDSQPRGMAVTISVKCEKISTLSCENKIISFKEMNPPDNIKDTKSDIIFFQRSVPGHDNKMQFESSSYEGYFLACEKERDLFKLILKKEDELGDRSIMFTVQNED

IL-18 (from UniProt Q14116)
pKd: 10.42
